# From the Human Domainome abundance scans (Beltran et al. 2025)
# ± gives the uncertainty stated by the source.
# B1: Zinc finger MYM-type protein 6, residues 427 to 504; numbered along this chain, O95789 (parent)
# chain: KLKCQHCNHLFATKPELLFYKGKMFLFCGKNCSDEYKKKNKVVAMCDYCKLQKIIKETVRFSGVDKPFCSEVCKFLSA
# Variants of: B1
# Assay: abundance fitness (aPCA) (normalised: wild type 0, dead -1); higher = more abundant; growth selection in yeast, the domain comes from the species named
# Details: Homo sapiens
row,Variant,abundance fitness
1,KLKCQHCNHLFATKPELLFYKGQMFLFCGKNCSDEYKKKNKVVAMCDYCKLQKIIKETVRFSGVDKPFCSEVCKFLSA [K23Q],-0.097 ± 0.047
2,KLKCQHCNHLFATKPELLFYKGHMFLFCGKNCSDEYKKKNKVVAMCDYCKLQKIIKETVRFSGVDKPFCSEVCKFLSA [K23H],-0.048 ± 0.039
3,KLKCQHCNHLFATKPELLFYKGKMFLFCGKNCSDEYKKKNKVVAMCDYCKLQKIIKETVRFSGVDKPFCSAVCKFLSA [E71A],-0.188 ± 0.092
4,KLKCQHCNHLFATKPELLFYKGKMFLFCGKNCSDEYKKKNKVVAMCDYCKLQKIIKETVRFSGVDKTFCSEVCKFLSA [P67T],-0.349 ± 0.28
5,KLKCQHCNHLFATKPELLFYKGKMFLFCGKNCSDEYKKKPKVVAMCDYCKLQKIIKETVRFSGVDKPFCSEVCKFLSA [N40P],-0.172 ± 0.04
6,KLKCQHCNHLFATKPELLFYKGKMFLFCGKNCSDEYKKKEKVVAMCDYCKLQKIIKETVRFSGVDKPFCSEVCKFLSA [N40E],-0.071 ± 0.06
7,KLKCQHCNHLFATKPELLFYKGKMFDFCGKNCSDEYKKKNKVVAMCDYCKLQKIIKETVRFSGVDKPFCSEVCKFLSA [L26D],-0.066 ± 0.056
8,KLKCQHCNHLFATKPELLFYKGKMFLFKGKNCSDEYKKKNKVVAMCDYCKLQKIIKETVRFSGVDKPFCSEVCKFLSA [C28K],-0.731 ± 0.14
9,KLKCQHCNHLCATKPELLFYKGKMFLFCGKNCSDEYKKKNKVVAMCDYCKLQKIIKETVRFSGVDKPFCSEVCKFLSA [F11C],-0.098 ± 0.048
10,KLKCQHCNHLLATKPELLFYKGKMFLFCGKNCSDEYKKKNKVVAMCDYCKLQKIIKETVRFSGVDKPFCSEVCKFLSA [F11L],-0.129 ± 0.035
11,KLKCQHCNHLDATKPELLFYKGKMFLFCGKNCSDEYKKKNKVVAMCDYCKLQKIIKETVRFSGVDKPFCSEVCKFLSA [F11D],-0.339 ± 0.057
12,KMKCQHCNHLFATKPELLFYKGKMFLFCGKNCSDEYKKKNKVVAMCDYCKLQKIIKETVRFSGVDKPFCSEVCKFLSA [L2M],0.048 ± 0.084
13,KLKCQHCNHLFATKPELLFYKGKMKLFCGKNCSDEYKKKNKVVAMCDYCKLQKIIKETVRFSGVDKPFCSEVCKFLSA [F25K],-0.067 ± 0.041
14,KLKCQHCNHLFATKPELLFYKGKMVLFCGKNCSDEYKKKNKVVAMCDYCKLQKIIKETVRFSGVDKPFCSEVCKFLSA [F25V],-0.009 ± 0.039
15,KLKCQHCNHLFATKPELLFYKGKMFLFCGKNCSDEYKKKNKVVAMCDYCKVQKIIKETVRFSGVDKPFCSEVCKFLSA [L51V],-0.119 ± 0.091
16,KLKCQHCNHLFATKPELLFYKGKMFLFCGKNCSDEYKKKNKVVAMCDYCKGQKIIKETVRFSGVDKPFCSEVCKFLSA [L51G],0.484 ± 0.058
17,KLKCQHCNHLFATKPELLFYKGKMFLFCGKNCSDEYKKKNKVVAMCDYCKCQKIIKETVRFSGVDKPFCSEVCKFLSA [L51C],0.49 ± 0.13
18,KLKCQHCNHLFATKPNLLFYKGKMFLFCGKNCSDEYKKKNKVVAMCDYCKLQKIIKETVRFSGVDKPFCSEVCKFLSA [E16N],-0.26 ± 0.094

row,Variant,abundance fitness
1,KLKCQHCNHLFATKPELLFYKGKMFLFCGKNCSDEYKKKNKVVAMCDYQKLQKIIKETVRFSGVDKPFCSEVCKFLSA [C49Q],0.123 ± 0.19
2,KLKCQHCNHLFATKPELLFYKGKMFLFCGKNCSDEYKKKNKVVAMCDYTKLQKIIKETVRFSGVDKPFCSEVCKFLSA [C49T],-0.54 ± 0.32
3,KLKCQHCNHLFATKPELLFYKGKMFLFCGKNCSDEYKKKNKVVAMCDYMKLQKIIKETVRFSGVDKPFCSEVCKFLSA [C49M],-0.677 ± 0.23
4,KLKLQHCNHLFATKPELLFYKGKMFLFCGKNCSDEYKKKNKVVAMCDYCKLQKIIKETVRFSGVDKPFCSEVCKFLSA [C4L],-0.698 ± 0.071
5,KLKCQHCNHLFATKPELLFYKGKMFLFCGKNCSDEYKKKNKVVAMCDYCKLQKIIKETVRFSTVDKPFCSEVCKFLSA [G63T],-0.226 ± 0.16
6,KLKCQHCNHLFATKPELLFYKGKMFLFCGKNCSDEYKKKNKVVAMCDYCKLQKIIKETVRFSGVDKPFCSEVCRFLSA [K74R],-0.298 ± 0.12
7,KLKCQHCNHLFATKPELLFYKGKMFLFCGKNCSDEYKKKNKVVAMCDYCKLQKIIKETVRFSGVDKPFCSEVCMFLSA [K74M],0.544 ± 0.11
8,KLKCQHCNHLFATKPELLFYKGKMFLFCGKNCSDEYKKKNKVVAMCDYCKLQKIIKETVRFSGVDKPFCSEVCEFLSA [K74E],-0.39 ± 0.16
9,KLKCQHCNHLFATKGELLFYKGKMFLFCGKNCSDEYKKKNKVVAMCDYCKLQKIIKETVRFSGVDKPFCSEVCKFLSA [P15G],-0.163 ± 0.029
10,KLKCQHCNHLFATKVELLFYKGKMFLFCGKNCSDEYKKKNKVVAMCDYCKLQKIIKETVRFSGVDKPFCSEVCKFLSA [P15V],-0.37 ± 0.037
11,KLKCQHCNHLFATKPELLFYKGKMFLFCGKNCSDEYKKCNKVVAMCDYCKLQKIIKETVRFSGVDKPFCSEVCKFLSA [K39C],-0.163 ± 0.063
12,KLKCQHCNHLFATKPELLFYKGKMFLFCGKNCSDEYKKQNKVVAMCDYCKLQKIIKETVRFSGVDKPFCSEVCKFLSA [K39Q],-0.043 ± 0.047
13,KLKCQHCNHLFATKPELLFYKGKMFLFCGKNCSDEYKKTNKVVAMCDYCKLQKIIKETVRFSGVDKPFCSEVCKFLSA [K39T],-0.058 ± 0.057
14,KLKCQHCNHLFATKPELLFYKGKMFLFCGKNCSDEYKKKNKVVAMCDYCKLQKIIKETVRSSGVDKPFCSEVCKFLSA [F61S],0.538 ± 0.11
15,KLKCQHCNHLFATKPELLFYKGKMFLFCGKNCSDEYKKKNKVVAMMDYCKLQKIIKETVRFSGVDKPFCSEVCKFLSA [C46M],-0.159 ± 0.12
16,KLKCQHCNHLFATKPELTFYKGKMFLFCGKNCSDEYKKKNKVVAMCDYCKLQKIIKETVRFSGVDKPFCSEVCKFLSA [L18T],-0.081 ± 0.04
17,KLKCQICNHLFATKPELLFYKGKMFLFCGKNCSDEYKKKNKVVAMCDYCKLQKIIKETVRFSGVDKPFCSEVCKFLSA [H6I],-0.154 ± 0.065
